This experiment deals with hGle1B tagged with mCerulean3 (Cer3-hGle1B) or mVenus (Venus-hGle1B) (human) (UniProt Q53GS7). Put plainly: FRET or BRET. (In general: BRET reads energy transfer from a luciferase to a nearby fluorophore.)
Chain of UniProt Q53GS7 (Q53GS7 whole entry): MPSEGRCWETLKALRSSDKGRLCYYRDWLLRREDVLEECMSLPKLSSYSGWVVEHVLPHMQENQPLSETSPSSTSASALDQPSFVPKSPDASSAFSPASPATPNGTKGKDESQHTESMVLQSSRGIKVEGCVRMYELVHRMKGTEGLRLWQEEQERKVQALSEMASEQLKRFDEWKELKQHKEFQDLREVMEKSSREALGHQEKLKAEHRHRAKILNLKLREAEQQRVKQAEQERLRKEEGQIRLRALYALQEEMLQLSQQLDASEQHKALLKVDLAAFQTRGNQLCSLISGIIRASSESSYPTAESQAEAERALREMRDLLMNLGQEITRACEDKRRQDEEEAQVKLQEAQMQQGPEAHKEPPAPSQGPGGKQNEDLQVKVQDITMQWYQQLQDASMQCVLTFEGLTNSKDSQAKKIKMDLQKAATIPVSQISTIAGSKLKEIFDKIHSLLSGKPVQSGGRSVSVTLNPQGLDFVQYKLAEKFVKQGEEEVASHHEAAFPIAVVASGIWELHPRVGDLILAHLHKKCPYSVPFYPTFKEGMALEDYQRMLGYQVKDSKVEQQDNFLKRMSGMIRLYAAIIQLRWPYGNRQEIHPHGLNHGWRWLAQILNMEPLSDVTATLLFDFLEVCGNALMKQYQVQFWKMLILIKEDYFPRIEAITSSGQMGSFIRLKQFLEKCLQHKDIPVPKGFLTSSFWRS

For mCerulean3 alone, the FRET efficiency (cytoplasm and nucleoplasm) is < 1.25%; the normalized FRET (NFRET) signal (all locations) was < 4.08.

For the origin of these results see article PMC3855398.
